The results in this text go back to patent publication US20240192215A1 (E AND S HEALTHCARE, published 2024).

Test [1] deals with T1, Peptide_020 (human).
T1 construct: 15-mer of hTrx1 on microarray
T1 peptide: KQIESKTAFQEALDA
The experiment in a line: peptide microarray, 0.2 ug/mL. The protocol:
(§1) 5, 1, 0.2, 0.04, 0.008 and 0.0016 μg/mL serial dilutions were incubated on a single multi-well microarray slide at 30° C. for 1 hour. The slide includes 21 individual mini-arrays (one mini-array per sample dilution).
(§2) DyLight 650 was used as a label. False-positive binding to a peptide was evaluated by performing one additional control incubation in which only a secondary antibody was applied on the same microarray slide. Before performing each step, the microarrays were washed with a washing buffer.

In the next test the target is T2, Peptide_022 (human).
T2 construct: 15-mer of hTrx1 on microarray
T2 peptide: IESKTAFQEALDAAG
The experiment in a line: peptide microarray, 0.2 ug/mL. The protocol:
as §1, §2

The target of test [2] is T3, Peptide_095 (human).
T3 construct: 15-mer of hTrx1 on microarray
T3 peptide: QFFKKGQKVGEFSGA
The experiment in a line: peptide microarray, 0.2 ug/mL. The protocol:
as §1, §2

The target in a further test is T4, Peptide_018 (human).
T4 construct: 15-mer on microarray; not native form, includes recombinant insert region; also called HVKQIESKTAFQEAL
T4 peptide: HVKQIESKTAFQEAL
Briefly: peptide microarray, 0.2 ug/mL. The method, then: as §1, §2

The next test deals with T5, Peptide_084 (human).
T5 construct: 15-mer of hTrx1 on microarray
T5 peptide: SECEVKCMPTFQFFK
Briefly: peptide microarray, 0.2 ug/mL. The method, then:
as §1, §2

Test [3] deals with T6, Peptide_013 (human).
T6 construct: 15-mer on microarray; not native form, includes recombinant insert region
T6 peptide: HHHHHHVKQIESKTA
Briefly: peptide microarray, 0.2 ug/mL. The protocol: as §1, §2

Test [4] has as its target T7, Peptide_085 (human).
T7 construct: 15-mer of hTrx1 on microarray
T7 peptide: ECEVKCMPTFQFFKK
The experiment in a line: peptide microarray, 0.2 ug/mL. The method, then:
as §1, §2

For test [5], the target named is T8, Peptide_094 (human).
T8 construct: 15-mer of hTrx1 on microarray
T8 peptide: FQFFKKGQKVGEFSG
The experiment in a line: peptide microarray, 0.2 ug/mL. The method, then:
as §1, §2

Test [6] concerns the target T9, Peptide_024 (human).
T9 construct: 15-mer of hTrx1 on microarray
T9 peptide: SKTAFQEALDAAGDK
The experiment in a line: peptide microarray, 0.2 ug/mL. The protocol:
as §1, §2

Test [7] has as its target T10, Peptide_086 (human).
T10 construct: 15-mer of hTrx1 on microarray
T10 peptide: CEVKCMPTFQFFKKG
Briefly: peptide microarray, 0.2 ug/mL. The protocol: as §1, §2

Test [8] concerns the target T11, Peptide_025 (human).
T11 construct: 15-mer of hTrx1 on microarray
T11 peptide: KTAFQEALDAAGDKL
The experiment in a line: peptide microarray, 0.2 ug/mL. The method, then: as §1, §2

The next test has as its target T12, Peptide_093 (human).
T12 construct: 15-mer of hTrx1 on microarray
T12 peptide: TFQFFKKGQKVGEFS
Briefly: peptide microarray, 0.2 ug/mL. The protocol:
as §1, §2

In test [9] the target is T13, Peptide_021 (human).
T13 construct: 15-mer of hTrx1 on microarray
T13 peptide: QIESKTAFQEALDAA
The experiment in a line: peptide microarray, 0.2 ug/mL. The method, then:
as §1, §2

In a further test the target is T14, Peptide_014 (human).
T14 construct: 15-mer on microarray; not native form, includes recombinant insert region
T14 peptide: HHHHHVKQIESKTAF
Briefly: peptide microarray, 0.2 ug/mL. The method, then: as §1, §2

The target in the next test is T15, Peptide_045 (human).
T15 construct: 15-mer of hTrx1 on microarray
T15 peptide: SATWCGPCKMIKPFF
Briefly: peptide microarray, 0.2 ug/mL. The method, then:
as §1, §2

Test [10] concerns the target T16, Peptide_092 (human).
T16 construct: 15-mer of hTrx1 on microarray
T16 peptide: PTFQFFKKGQKVGEF
Briefly: peptide microarray, 0.2 ug/mL. The protocol: as §1, §2

Test [11] has as its target T17, Peptide_015 (human).
T17 construct: 15-mer on microarray; not native form, includes recombinant insert region
T17 peptide: HHHHVKQIESKTAFQ
Briefly: peptide microarray, 0.2 ug/mL. The method, then: as §1, §2

For test [12], the target named is T18, human thioredoxin-1 (Trx1) (human, UniProt P10599 1-105).
T18 construct: also called hTrx1; hTRX1
T18 sequence (looked up): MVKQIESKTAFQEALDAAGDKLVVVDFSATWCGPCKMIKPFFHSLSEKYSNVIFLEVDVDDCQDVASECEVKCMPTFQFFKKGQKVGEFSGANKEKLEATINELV
Briefly: one site - total fit (Prism) of the ELISA of panel (a); the cell has no unit, the concentrations of panel (a) are in nM; paragraph 183 prints it rounded as 1.3x10^-10 [b]. The protocol: 100 μl of a coating buffer and 100 ng of Trx1 were mixed and dispensed to each well, and then reacted at 4° C. for 16 hours or more. After the reaction solution was removed, 200 μl of PBSA was dispensed to each well and reacted at 37° C. for 120 minutes. […] After the reaction solution was removed, washing was performed by dispensing 200 μl of a washing buffer to each well. The above-described process was performed two times.
After the reaction solution was removed, washing was performed by dispensing 200 μl of a washing buffer to each well. The above-described process was performed three times.

Test [13] has as its target T1, Peptide_020. The experiment in a line: peptide microarray, 0.04 ug/mL. The method, then: as §1, §2
Test [14] addresses T3, Peptide_095. The experiment in a line: peptide microarray, 0.04 ug/mL. The method, then: as §1, §2
Test [15] deals with T6, Peptide_013. The experiment in a line: peptide microarray, 0.04 ug/mL. The method, then:
as §1, §2

The next test has as its target T19, Peptide_023 (human).
T19 construct: 15-mer of hTrx1 on microarray
T19 peptide: ESKTAFQEALDAAGD
The experiment in a line: peptide microarray, 0.04 ug/mL. The method, then:
as §1, §2

For a further test, the target named is T20, Peptide_019 (human).
T20 construct: 15-mer of hTrx1 on microarray
T20 peptide: VKQIESKTAFQEALD
Briefly: peptide microarray, 0.04 ug/mL. The protocol: as §1, §2

Test [16] addresses T7, Peptide_085. Briefly: peptide microarray, 0.04 ug/mL. The method, then: as §1, §2
Test [17] deals with T8, Peptide_094. Briefly: peptide microarray, 0.04 ug/mL. The method, then: as §1, §2
Test [18] addresses T9, Peptide_024. Briefly: peptide microarray, 0.04 ug/mL. The protocol:
as §1, §2

In test [19] the target is T10, Peptide_086. Briefly: peptide microarray, 0.04 ug/mL. The protocol:
as §1, §2

In test [20] the target is T11, Peptide_025. The experiment in a line: peptide microarray, 0.04 ug/mL. The method, then:
as §1, §2

Test [21] addresses T13, Peptide_021. The experiment in a line: peptide microarray, 0.04 ug/mL. The protocol: as §1, §2
The target of test [22] is T16, Peptide_092. Briefly: peptide microarray, 0.04 ug/mL. The protocol: as §1, §2
Test [23] addresses T17, Peptide_015. The experiment in a line: peptide microarray, 0.04 ug/mL. The method, then:
as §1, §2

Test [24] deals with T21, Peptide_004 (human).
T21 construct: 15-mer on microarray; not native form, recombinant insert region
T21 peptide: AADVHSQHHHHHHHH
The experiment in a line: peptide microarray, 0.2 ug/mL. The method, then:
as §1, §2

Test [25] deals with T22, Peptide_005 (human).
T22 construct: 15-mer on microarray; not native form, recombinant insert region
T22 peptide: ADVHSQHHHHHHHHV
Briefly: peptide microarray, 0.2 ug/mL. The method, then: as §1, §2

Test [26] deals with T21, Peptide_004. The experiment in a line: peptide microarray, 0.04 ug/mL. The protocol:
as §1, §2

In test [27] the target is T22, Peptide_005. The experiment in a line: peptide microarray, 0.04 ug/mL. The protocol:
as §1, §2

B1: monoclonal antibody B264 (antibody, mouse IgG1, kappa, V domains shown)
VH: QVQLQQSGAELARPGASVKMSCKASGYTFTSYTMHWVKQRPGQGLEWIGYINPTSDYTNYNQKFKDKATLTADKSSSTAYMQLSSLTSEDSAVYFCASEGGFLYYFDYWGQGTTLTVSS
VL: DVLMTQTPLSLPVSLGDQASISCRSSQSIVHSNGNTYLEWYLQKPGQSPKLLIYKVSNRFSGVPDRFSGSGSGTDFTLKISRVEAEDLGVYYCFQGSHVPYTFGGGTKLEIKR
notes: also called AB264; B264 (Trx1-mIgG1)
Take B1: the “signal (blank-control = 1)” value came to 1.84 with Peptide_020 [1]; 4.2 in the test with Peptide_022; 2.13 with Peptide_095 [2]; 3.49 in the test with Peptide_018; 2.36 with Peptide_084; 1.85 with Peptide_013 [3]. Also, the “signal (blank-control = 1)” value in the test with Peptide_085 [4] was found to be 2.23; in the test with Peptide_094 [5], 2.11; with Peptide_024 [6], 4; with Peptide_086 [7], 1.16; in the test with Peptide_025 [8] it was 4.9; with Peptide_093, 3.72. The “signal (blank-control = 1)” value with Peptide_021 [9] was determined as 2.08; with Peptide_014 it was 3.16; with Peptide_045, 4.58; with Peptide_092 [10], 6.81; with Peptide_015 [11] it was 2.5; with Peptide_020 [13], 1.33. Also, the “signal (blank-control = 1)” value came to 1.66 in the test with Peptide_095 [14]; 1.4 with Peptide_013 [15]; 1.15 with Peptide_023; 1.2 with Peptide_019; 1.48 with Peptide_085 [16]; 1.49 with Peptide_094 [17]. The “signal (blank-control = 1)” value with Peptide_024 [18] was 2.38; with Peptide_086 [19] it was 1.14; with Peptide_025 [20] it was 2.39; in the test with Peptide_021 [21], 1.35; with Peptide_092 [22] it was 5.18; with Peptide_015 [23], 1.69. In [12], this molecule came in with a Kd of 0.133 nM.

B2: monoclonal antibody B266-1 (antibody, human IgG1)
light: QIVLTQSPAIMSASPGEKVTMTCSASSRISYMYWYQQKPGTSPKRWIYDTSKLASGVPARFSGSGSGTSYSLTISTMEAEDAATYYCHQRSSYPTFGAGTKLELKSVAAPSVFIFPPSDEQLKSGTASVVCLLNNFYPREAKVQWKVDNALQSGNSQESVTEQDSKDSTYSLSSTLTLSKADYEKHKVYACEVTHQGLSSPVTKSFNRGEC
heavy: not shown
notes: B266 with the Fc part changed to human IgG1; also called B266-1 (Trx1-hIgG1); B266-1 (hTrx1-hIgG1)
For B2, the “signal (blank-control = 1)” value stood at 1.41 with Peptide_004 [24], 1.78 with Peptide_005 [25], 1.14 in the test with Peptide_004 [26] and 1.6 with Peptide_005 [27].
